Broadly, the Ki is a measure of affinity in units of concentration, obtained from inhibition or displacement. A lower Ki goes with a stronger hold on the target.

Values joined by “and” are separate entries in the source; they are usually repeats but may differ in a detail not shown here. Equal entries are not always repeated.

This experiment addresses acetamidofluorescein-F-actin on antifluorescein IgG-Sephacryl S-1000 beads (rabbit) (UniProt P68135). In words: co-sedimentation.

Sequence of myosin subfragment-1 (domain or fragment) (Q28641 whole entry, the tested form may be a part): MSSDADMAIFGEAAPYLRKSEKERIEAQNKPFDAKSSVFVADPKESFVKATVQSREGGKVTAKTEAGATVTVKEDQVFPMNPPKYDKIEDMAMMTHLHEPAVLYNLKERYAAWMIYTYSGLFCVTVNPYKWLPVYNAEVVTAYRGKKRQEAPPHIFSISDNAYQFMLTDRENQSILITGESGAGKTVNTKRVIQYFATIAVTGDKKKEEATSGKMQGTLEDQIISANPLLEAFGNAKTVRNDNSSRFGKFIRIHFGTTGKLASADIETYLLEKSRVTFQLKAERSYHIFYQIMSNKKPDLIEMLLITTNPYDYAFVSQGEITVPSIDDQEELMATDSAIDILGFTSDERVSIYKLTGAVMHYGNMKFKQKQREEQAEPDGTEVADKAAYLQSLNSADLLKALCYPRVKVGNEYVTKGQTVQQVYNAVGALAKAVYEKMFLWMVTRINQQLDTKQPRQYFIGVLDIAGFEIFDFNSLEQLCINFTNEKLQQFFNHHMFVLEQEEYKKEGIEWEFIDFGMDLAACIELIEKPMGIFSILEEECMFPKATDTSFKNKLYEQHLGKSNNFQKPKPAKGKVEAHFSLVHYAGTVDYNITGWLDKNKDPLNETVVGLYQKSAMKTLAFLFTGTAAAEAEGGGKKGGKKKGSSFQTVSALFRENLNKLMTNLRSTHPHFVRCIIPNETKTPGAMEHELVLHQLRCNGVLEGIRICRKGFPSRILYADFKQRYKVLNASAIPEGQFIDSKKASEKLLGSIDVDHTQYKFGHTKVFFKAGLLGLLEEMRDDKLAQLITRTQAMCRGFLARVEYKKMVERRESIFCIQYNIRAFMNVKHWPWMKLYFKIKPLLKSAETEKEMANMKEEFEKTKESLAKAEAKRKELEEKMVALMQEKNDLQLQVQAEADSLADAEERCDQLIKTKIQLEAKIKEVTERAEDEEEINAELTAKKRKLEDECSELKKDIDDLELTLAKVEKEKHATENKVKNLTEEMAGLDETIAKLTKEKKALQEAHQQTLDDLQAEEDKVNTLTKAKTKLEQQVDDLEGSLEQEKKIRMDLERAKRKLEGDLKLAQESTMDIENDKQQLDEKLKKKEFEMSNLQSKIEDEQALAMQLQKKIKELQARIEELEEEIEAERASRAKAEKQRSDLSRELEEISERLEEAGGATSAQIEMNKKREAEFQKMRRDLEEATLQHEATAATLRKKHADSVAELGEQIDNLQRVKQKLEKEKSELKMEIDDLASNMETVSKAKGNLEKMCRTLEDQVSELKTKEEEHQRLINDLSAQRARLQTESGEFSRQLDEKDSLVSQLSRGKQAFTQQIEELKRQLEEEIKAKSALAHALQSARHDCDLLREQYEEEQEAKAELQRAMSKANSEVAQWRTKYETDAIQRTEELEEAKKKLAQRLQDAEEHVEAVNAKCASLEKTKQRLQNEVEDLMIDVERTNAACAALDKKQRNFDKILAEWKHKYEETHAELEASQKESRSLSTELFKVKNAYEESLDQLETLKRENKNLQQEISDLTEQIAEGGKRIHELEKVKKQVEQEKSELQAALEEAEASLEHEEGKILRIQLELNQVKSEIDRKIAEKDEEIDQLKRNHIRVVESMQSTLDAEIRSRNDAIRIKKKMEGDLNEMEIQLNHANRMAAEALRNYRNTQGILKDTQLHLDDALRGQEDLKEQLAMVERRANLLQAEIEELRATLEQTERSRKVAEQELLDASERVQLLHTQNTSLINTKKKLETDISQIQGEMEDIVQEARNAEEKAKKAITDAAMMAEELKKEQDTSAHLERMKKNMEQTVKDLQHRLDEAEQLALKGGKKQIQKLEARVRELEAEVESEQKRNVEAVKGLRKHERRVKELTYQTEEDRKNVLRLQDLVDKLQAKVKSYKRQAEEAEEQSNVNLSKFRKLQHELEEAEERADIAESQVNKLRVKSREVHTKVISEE

For “myosin subfragment-1 (domain or fragment)”, the Ki was 40 nM and 25 nM and 80 nM.
